Data as given in patent US20050058697A1, “Cell penetrating therapeutic agents” (priority 2001, published 2005).

What was measured:
[1] = Association of AntpHD-Cw3 with liposomes (size exclusion chromatography, micro BCA protein assay, [3H]CHE lipid count); type: physicochemical; settings: for coupling efficiency: 10 mol % DOGS-NTA-Ni
Experimental: Formulations were incubated with AntpHD-Cw3, free peptide was separated from the associated peptide using size exclusion chromatography, amount of peptide (□) and lipid (●) was then determined for each fraction as described herein.
DOPC/Chol liposomes containing 0% (O) and 10% (▪) DOGS-NTA-Ni were incubated with AntpHD-Cw3 at various peptide to liposome ratio for 30 min. at room temperature. The amount of peptide bound was determined after the incubation period as described herein. Data presented represent averaged results obtained from three liposome preparations ±S.E.M.
200 μg of dialyzed AntpHD-Cw3 was incubated with 10 μmoles liposomes as described for FIGS. 2-4 (v/v) for 30 min. at room temperature under rotary shaking. The mixture was then loaded on a Biogel™ A 1.5 m chromatography column in order to remove the free peptide from peptide that was incorporated into the liposome. The peptide/liposome ratio was determined by quantifying liposomal lipid using [^3H]CHE. Radioactivity was measured by liquid scintillation counting on a Can berra-Packard scintillation P counter (1900 TR Tri Carb™), using Pico-fluor 40™ scintillation cocktail. The peptide was quantified using the micro BCA™ protein assay kit, after dissolving the liposomes in 0.5% triton. BSA was used as the standard for this analysis.

CCCCCCCC/C=C\CCCCCCCC(=O)OC[C@H](COC(=O)CCC(=O)NCCCCC(C(=O)O)N(CC(=O)[O-])CC(=O)[O-])OC(=O)CCCCCCC/C=C\CCCCCCCC.[Ni+2] (stereo partly shown) [DOGS-NTA-Ni, 1,2-Dioleoyl-sn-glycero-3-{[n(5-amino-1-carboxypentyl)iminodiaceticacid]succinyl} (Nickel Salt)]
immune response to the lipid alone: little in the way of a detectable immune response

AntpHD-Cw3: Antennapedia homeodomain fused to Cw3 epitope (170-179), with 10-histidine tag and 13-amino acid linker (SEQ ID NO:1)
coupling efficiency ([1]; initial ratio 60 AntpHD-Cw3/μmole lipid): 80% | coupling efficiency ([1]; initial ratio 80 AntpHD-Cw3/μmole lipid): 65% | saturation of AntpHD-Cw3 binding ([1]; liposomes with 10 mol % DOGS-NTA-Ni, FIG. 3): around 50 μg AntpHD-Cw3/μmole liposomal lipid
